The record followed here is the Immune Epitope Database (IEDB).

Common to all, as to experiment: IEDB peptide-MHC binding, purified MHC/competitive/radioactivity; filed as Kd, often an IC50 or EC50 that approximates it; ≥ and ≤ were set here for values at or beyond the usual limits of such assays
Assay [1] concerns the target HLA-A*02:03.
Assay [2] addresses HLA-A*02:06.
The target in assay [3] is HLA-A*02:02.
Assay [4] concerns the target HLA-A*03:01.
The target of assay [5] is HLA-A*11:01.
In assay [6] the target is HLA-A*31:01.
For assay [7], the target named is HLA-A*33:01.
The target in assay [8] is HLA-A*68:01.
The mark [9] stands for this setting: source organism: Vaccinia virus WR.
[10] abbreviates: source organism: Mammarenavirus guanaritoense.
The mark [11] stands for this setting: source organism: Lymphocytic choriomeningitis virus (strain Armstrong).
The mark [12] stands for this setting: source organism: SARS coronavirus Tor2.

Usually Kd stands for the concentration at which binding is half-saturated. As to TISWMMKLGI, the Kd is 972 nM in assay [1] (setting [9]), 2780 nM in assay [2] (setting [9]) and 7840 nM in assay [3] (setting [9]).

In the case of TLVDLCFWS, the results for the Kd in assay [1] (setting [10]), in assay [2] (setting [10]) and in assay [3] (setting [10]) were 523 nM, 134 nM and 57.9 nM, respectively.

Regarding VLLPFYETL, the Kd in assay [1] (setting [9]) came out at 267 nM; in assay [2] (setting [9]) it was 218 nM; in assay [3] (setting [9]), 4060 nM.

With FIISTLNKIL, the values for the Kd in assay [1] (setting [9]), in assay [2] (setting [9]) and in assay [3] (setting [9]) were 1.8 nM, 8.1 nM and 5080 nM, respectively.

As for LNVSYLCHL, the Kd in assay [1] (setting [11]) is 7100 nM; in assay [2] (setting [11]), 13600 nM; in assay [3] (setting [11]), 296 nM.

Turning to GLTTHCTKL, the Kd was 30 nM in assay [1] (setting [9]), at least 31600 nM in assay [2] (setting [9]) and 100 nM in assay [3] (setting [9]).

In the case of FVFNGTSWFI, the Kd was 2.15 nM in assay [1] (setting [12]), 0.439 nM in assay [2] (setting [12]) and 1.01 nM in assay [3] (setting [12]).

Regarding IIMAINVFT, the Kd was determined as 180 nM in assay [1] (setting [9]), 10.3 nM in assay [2] (setting [9]) and 39.3 nM in assay [3] (setting [9]).

RLEVIGLTT: the Kd in assay [1] (setting [9]) was 13900 nM; in assay [2] (setting [9]), at least 49800 nM; in assay [3] (setting [9]), at least 20000 nM.

Regarding VQLSNNKYVL, the equilibrium dissociation constant (Kd) was 9490 nM in assay [1] (setting [9]), 170 nM in assay [2] (setting [9]) and 288 nM in assay [3] (setting [9]).

Turning to VVIGLLFMI, the Kd in assay [2] (source organism: Dengue virus 1 Brazil/97-11/1997) came to 5.61 nM.

For YSRVNHAKY, the Kd was 1530 nM in assay [4] (setting [9]); at least 42200 nM in assay [5] (setting [9]); at least 73700 nM in assay [6] (setting [9]); at least 77700 nM in assay [7] (setting [9]); 1190 nM in assay [8] (setting [9]).

In the case of YTNEIIGYK, the dissociation constant Kd in assay [4] (setting [12]) stood at 4.97 nM; in assay [5] (setting [12]), 2.56 nM; in assay [6] (setting [12]), 937 nM; in assay [7] (setting [12]), 414 nM; in assay [8] (setting [12]), 2.24 nM.

Turning to RVPRNLTLSK, the Kd in assay [4] (setting [12]) was 12.4 nM; in assay [5] (setting [12]) it was 8.33 nM; in assay [6] (setting [12]), 767 nM; in assay [7] (setting [12]) it was at least 70000 nM; in assay [8] (setting [12]), 2100 nM.

With VIENGILKK, the Kd was 438 nM in assay [4] (setting [9]); 29.6 nM in assay [5] (setting [9]); 12900 nM in assay [6] (setting [9]); at least 77700 nM in assay [7] (setting [9]); 1830 nM in assay [8] (setting [9]).

KQIANQFNK: the Kd in assay [4] (setting [12]) was 108 nM; in assay [5] (setting [12]) it was 138 nM; in assay [6] (setting [12]), 24.2 nM; in assay [7] (setting [12]), at least 77700 nM; in assay [8] (setting [12]), 9990 nM.

As to NMVSDTIMKR, the Kd stood at 4180 nM in assay [4] (setting [9]); 120 nM in assay [5] (setting [9]); 307 nM in assay [6] (setting [9]); 827 nM in assay [7] (setting [9]); 92 nM in assay [8] (setting [9]).

Turning to PMVIENGILK, the Kd in assay [4] (setting [9]) is 10200 nM; in assay [5] (setting [9]), 216 nM; in assay [6] (setting [9]), at least 24100 nM; in assay [7] (setting [9]), at least 70000 nM; in assay [8] (setting [9]), 292 nM.

On to ELGFNYPEY, for which the Kd in assay [4] (setting [9]) is at least 39700 nM; in assay [5] (setting [9]), at least 66700 nM; in assay [6] (setting [9]), at least 77900 nM; in assay [7] (setting [9]), at least 77700 nM; in assay [8] (setting [9]), 8850 nM.

Regarding NQILEENVEV, the Kd in assay [2] (source organism: Dengue virus 2 Jamaica/1409/1983) came out at 56.1 nM.

YLINPNILY: the Kd in assay [4] (setting [9]) is 1520 nM; in assay [5] (setting [9]), 376 nM; in assay [6] (setting [9]), at least 77900 nM; in assay [7] (setting [9]), at least 45100 nM; in assay [8] (setting [9]), 3240 nM.

PLHILASNKK: the Kd in assay [4] (setting [9]) was 1480 nM; in assay [5] (setting [9]) it was 3420 nM; in assay [6] (setting [9]) it was 7700 nM; in assay [7] (setting [9]), at least 70000 nM; in assay [8] (setting [9]), at least 21900 nM.

As to HQIFGTAYGV, the Kd in assay [2] (source organism: Dengue virus 1 Nauru/West Pac/1974) stood at 20.6 nM.

With LSEYETMVDY, the equilibrium dissociation constant (Kd) in assay [4] (setting [9]) is 5270 nM; in assay [5] (setting [9]) it was 16000 nM; in assay [6] (setting [9]), at least 70000 nM; in assay [7] (setting [9]), at least 70000 nM; in assay [8] (setting [9]) it was at least 70200 nM.
